Target: recombinant human protease-activated receptor 1 with GST tag (GST-PAR1) (human) (UniProt P25116)
Test: SPR; BIAcore X100; GST-PAR1 (10 ug/mL) captured on anti-GST antibody immobilised on a CM5 chip (about 854 RU); running buffer 50 mM Hepes pH 7.0, 0.01% CHS, 0.1% CHAPS, 0.33 mM DOPC:DOPS; captured GST as blank; analytes injected at 125 to 1000 nM, 30 uL/min; single site model

GARASVLSGGELDRWEKIRL [F1 peptide (p17 N-terminal sequence, aa 2 to 21)]
Kd: 0.046 µM

From PMC8203498
